Data from patent US20230265168A1 (BEIJING KAWIN TECHNOLOGY SHARE, published 2023).

Molecular target: T1, HBsAg protein (hepatitis B virus surface antigen) (hepatitis B virus, UniProt P03140 175-400)
T1 construct: Coated on the ELISA plate at 20 ug/ml; also called HBsAg antigen
Assay: ELISA on coated HBsAg; grade from OD450 ratio to 021 at 4 ug/ml
Experimental: The plate was washed 3 times with a washing solution PBST (PBS with 0.5%0 Tween), adding 100 μl/well secondary antibody (1:10000 dilution, Jackson ImmunoResearch) to the ELISA plate, and incubated at 37° C. for 1 hour. Finally, the plate was washed 5 times with a washing solution PBST (PBS with 0.5%0 Tween), adding 100 μl/well TMB chromogenic solution, placing it in the dark to react for 20-40 minute at room temperature, adding equal volume of stop solution to stop the chromogenic reaction, and uing Microplate Reader to measure the absorbance (OD value) at wavelength of 450 nm.

T1 sequence (P03140 175-400, tags left off): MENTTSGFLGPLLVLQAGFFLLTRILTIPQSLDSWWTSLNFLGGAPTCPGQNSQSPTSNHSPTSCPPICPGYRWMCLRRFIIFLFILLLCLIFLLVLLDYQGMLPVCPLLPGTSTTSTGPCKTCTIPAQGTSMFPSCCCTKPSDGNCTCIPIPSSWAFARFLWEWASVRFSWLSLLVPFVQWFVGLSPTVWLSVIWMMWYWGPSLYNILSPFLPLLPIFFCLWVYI

| Binder | ratio of OD450 at 4 ug/ml to OD450 of antibody 021 at 4 ug/ml |
| --- | --- |
| antibody 096 (antibody, human IgG1, kappa, V domains shown) VH: not shown VL: ETTLTQSPSTLSASVGDRVTITCRASQSISSYLNWYQQKPGKAPQLLIYTASSLQSGVPSRFSGSGSGTDFTLTISSLQPEDFATYYCQQSYSTPLTFGQGTRLEIKR | > 1.1 ratio |
| antibody 090 (antibody, human IgG1, kappa, V domains shown) VH: EVQLVQSGAEVKKPGASMKVSCKASGYTFTDYYIHWVRQAPGQGPEWMGWINPNSGGTNYAQKFQGRVTMTRDTSISTAYMELSRLRSDDTAVYYCARDLWNDDVDYYGMDVWGKGTMVTVSS VL: EIVLTQSPGTLSLSPGERATLSCRASQSVSSYLAWYQQKPGQAPRLLIYGASSRATGIPARFSGSGSGTEFTLTISSLQSEDFATYYCQQSYSTPLTFGPGTKVEIKR | 0.8 to 1.1 ratio |
| antibody 091 (antibody, human IgG1, kappa, V domains shown) VH: EVQLVQSGAEVKKPGASMKVSCKASGYTFTDYYIHWVRQAPGQGPEWMGWINPNSGGTNYAQKFQGRVTMTRDTSISTAYMELSRLRSDDTAVYYCARDLWNDDVDYYGMDVWGKGTMVTVSS VL: EIVLTQSPATLSLSPGERATLSCRASQSVSSYLAWYQQKPGQAPRLLIYDASNRATGIPARFSGSGSGTDFTLTISSLEPEDFATYYCQQSYSTPLTFGGGTKVDIKR | 0.8 to 1.1 ratio |
| antibody 083 (antibody, human IgG1, kappa, V domains shown) VH: EVQLVQSGAEVKKPGASVKVSCKASGYTFTYYYMHWVRQAPGQGLEWMGWINPNSGGTNYAQKFQGRVTITADKSTSTAYMELSSLRSEDTAVYYCARDVWQQGGYYYYMDVWGKGTLVTVSS VL: not shown | > 1.1 ratio |
| antibody 021-M34 (antibody, human IgG1, kappa, V domains shown, 021 with X34 (LCDR1) Q to A) VH: not shown VL: DIQLTQSPSSLSASVGDRVTITCRASASISTYLNWYQQKPGKAPKLLIYAASSLQSGVPSRFSGSGSGTDFTLTISSLQPEDFATYYCQQSYSTPLTFGGGTKVDIKR | 0.8 to 1.1 ratio |
| antibody 093 (antibody, human IgG1, kappa, V domains shown) VH: EVQLVQSGAEVKKPGASMKVSCKASGYTFTDYYIHWVRQAPGQGPEWMGWINPNSGGTNYAQKFQGRVTMTRDTSISTAYMELSRLRSDDTAVYYCARDLWNDDVDYYGMDVWGKGTMVTVSS VL: DIQLTQSPSSLSASVGDRVTITCRASQSISSYLNWYQQKPGKAPKLLIYDASSLQSGVPSRFSGSGSGTEFTLTIRSLQPEDFATYYCQQSYSTPLTFGGGTKLEIKR | > 1.1 ratio |
| antibody 021-M42 (antibody, human IgG1, kappa, V domains shown, 021 with X42 (LCDR2) S to A) VH: not shown VL: DIQLTQSPSSLSASVGDRVTITCRASQSISTYLNWYQQKPGKAPKLLIYAAASLQSGVPSRFSGSGSGTDFTLTISSLQPEDFATYYCQQSYSTPLTFGGGTKVDIKR | 0.6 to 0.8 ratio |
| antibody 021-M36 (antibody, human IgG1, kappa, V domains shown, 021 with X36 (LCDR1) I to A) VH: not shown VL: DIQLTQSPSSLSASVGDRVTITCRASQSASTYLNWYQQKPGKAPKLLIYAASSLQSGVPSRFSGSGSGTDFTLTISSLQPEDFATYYCQQSYSTPLTFGGGTKVDIKR | 0.4 to 0.6 ratio |
| antibody 021-M41 (antibody, human IgG1, kappa, V domains shown, 021 with X41 (LCDR2) A to S) VH: not shown VL: DIQLTQSPSSLSASVGDRVTITCRASQSISTYLNWYQQKPGKAPKLLIYASSSLQSGVPSRFSGSGSGTDFTLTISSLQPEDFATYYCQQSYSTPLTFGGGTKVDIKR | 0.8 to 1.1 ratio |
| antibody 095 (antibody, human IgG1, kappa, V domains shown) VH: not shown VL: DIQLTQSPSSLSASVGDRVTITCRASQSISSYLNWYQQKPGKAPKLLISAASSLQSGVPSRFSGSGSGTDFTLTISSLQPGDLATYYCQQSYSTPLTFGGGTKVEIKR | > 1.1 ratio |
| antibody 021-M40 (antibody, human IgG1, kappa, V domains shown, 021 with X40 (LCDR2) A to S) VH: not shown VL: DIQLTQSPSSLSASVGDRVTITCRASQSISTYLNWYQQKPGKAPKLLIYSASSLQSGVPSRFSGSGSGTDFTLTISSLQPEDFATYYCQQSYSTPLTFGGGTKVDIKR | > 1.1 ratio |
| antibody 021-M35 (antibody, human IgG1, kappa, V domains shown, 021 with X35 (LCDR1) S to A) VH: not shown VL: DIQLTQSPSSLSASVGDRVTITCRASQAISTYLNWYQQKPGKAPKLLIYAASSLQSGVPSRFSGSGSGTDFTLTISSLQPEDFATYYCQQSYSTPLTFGGGTKVDIKR | 0.8 to 1.1 ratio |
| antibody 021-M39 (antibody, human IgG1, kappa, V domains shown, 021 with X39 (LCDR1) Y to A) VH: not shown VL: DIQLTQSPSSLSASVGDRVTITCRASQSISTALNWYQQKPGKAPKLLIYAASSLQSGVPSRFSGSGSGTDFTLTISSLQPEDFATYYCQQSYSTPLTFGGGTKVDIKR | 0.4 to 0.6 ratio |
